The text below walks through data of patent publication US20190194304A1 (STICHTING SANQUIN BLOEDVOORZIENING, published 2019).

First the molecules themselves.
B1: human factor H (other, UniProt P08603 19-1231, looked up)
chain: EDCNELPPRRNTEILTGSWSDQTYPEGTQAIYKCRPGYRSLGNVIMVCRKGEWVALNPLRKCQKRPCGHPGDTPFGTFTLTGGNVFEYGVKAVYTCNEGYQLLGEINYRECDTDGWTNDIPICEVVKCLPVTAPENGKIVSSAMEPDREYHFGQAVRFVCNSGYKIEGDEEMHCSDDGFWSKEKPKCVEISCKSPDVINGSPISQKIIYKENERFQYKCNMGYEYSERGDAVCTESGWRPLPSCEEKSCDNPYIPNGDYSPLRIKHRTGDEITYQCRNGFYPATRGNTAKCTSTGWIPAPRCTLKPCDYPDIKHGGLYHENMRRPYFPVAVGKYYSYYCDEHFETPSGSYWDHIHCTQDGWSPAVPCLRKCYFPYLENGYNQNYGRKFVQGKSIDVACHPGYALPKAQTTVTCMENGWSPTPRCIRVKTCSKSSIDIENGFISESQYTYALKEKAKYQCKLGYVTADGETSGSITCGKDGWSAQPTCIKSCDIPVFMNARTKNDFTWFKLNDTLDYECHDGYESNTGSTTGSIVCGYNGWSDLPICYERECELPKIDVHLVPDRKKDQYKVGEVLKFSCKPGFTIVGPNSVQCYHFGLSPDLPICKEQVQSCGPPPELLNGNVKEKTKEEYGHSEVVEYYCNPRFLMKGPNKIQCVDGEWTTLPVCIVEESTCGDIPELEHGWAQLSSPPYYYGDSVEFNCSESFTMIGHRSITCIHGVWTQLPQCVAIDKLKKCKSSNLIILEEHLKNKKEFDHNSNIRYRCRGKEGWIHTVCINGRWDPEVNCSMAQIQLCPPPPQIPNSHNMTTTLNYRDGEKVSVLCQENYLIQEGEEITCKDGRWQSIPLCVEKIPCSQPPQIEHGTINSSRSSQESYAHGTKLSYTCEGGFRISEENETTCYMGKWSSPPQCEGLPCKSPPEISHGVVAHMSDSYQYGEEVTYKCFEGFGIDGPAIAKCLGEKWSHPPSCIKTDCLSLPSFENAIPMGEKKDVYKAGEQVTYTCATYYKMDGASNVTCINSRWTGRPTCRDTSCVNPPTVQNAYIVSRQMSKYPSGERVRYQCRSPYEMFGDEEVMCLNGNWTEPPQCKDSTGKCGPPPPIDNGDITSFPLSVYAPASSVEYQCQNLYQLEGNKRITCRNGQWSEPPKCLHPCVISREIMENYNIALRWTAKQKLYSRTGESVEFVCKRGYRLSSRSHTLRTTCWDGKLEYPTCAKR
notes: mature; Purified plasma FH (CompTech) in SPR, bridging ELISA and hybridoma screening (biotinylated); FH of healthy donor or aHUS patient serum in the C3b ELISA and the functional assays. aHUS sera carry a heterozygous mutation in CCP 20 that is not specified; also called FH; human purified factor H

In one test the target is T1, iC3b (UniProt P01024 23-667; P01024 749-1303; P01024 1321-1663, limits assumed).
T1 construct: domain: iC3b; also called purified iC3b
T1 sequence (P01024 23-667 limits assumed, chain 1 of 3): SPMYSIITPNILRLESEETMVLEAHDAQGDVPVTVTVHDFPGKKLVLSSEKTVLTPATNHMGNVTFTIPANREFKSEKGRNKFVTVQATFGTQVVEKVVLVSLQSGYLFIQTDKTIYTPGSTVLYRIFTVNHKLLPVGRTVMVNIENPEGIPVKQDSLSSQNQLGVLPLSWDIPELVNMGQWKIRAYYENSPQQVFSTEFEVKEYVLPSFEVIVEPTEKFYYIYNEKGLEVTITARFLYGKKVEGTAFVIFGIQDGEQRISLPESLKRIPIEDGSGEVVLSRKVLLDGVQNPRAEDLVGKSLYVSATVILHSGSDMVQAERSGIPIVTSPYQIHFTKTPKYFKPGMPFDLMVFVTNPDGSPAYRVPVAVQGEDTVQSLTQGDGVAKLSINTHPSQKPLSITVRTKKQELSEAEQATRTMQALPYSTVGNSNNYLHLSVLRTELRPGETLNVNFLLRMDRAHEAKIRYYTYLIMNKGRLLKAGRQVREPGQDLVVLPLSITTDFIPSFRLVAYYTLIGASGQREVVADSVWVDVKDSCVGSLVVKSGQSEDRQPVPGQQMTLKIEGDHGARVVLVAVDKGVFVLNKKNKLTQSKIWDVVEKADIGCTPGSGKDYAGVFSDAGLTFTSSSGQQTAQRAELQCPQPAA
T1 sequence (P01024 749-1303 limits assumed, chain 2 of 3): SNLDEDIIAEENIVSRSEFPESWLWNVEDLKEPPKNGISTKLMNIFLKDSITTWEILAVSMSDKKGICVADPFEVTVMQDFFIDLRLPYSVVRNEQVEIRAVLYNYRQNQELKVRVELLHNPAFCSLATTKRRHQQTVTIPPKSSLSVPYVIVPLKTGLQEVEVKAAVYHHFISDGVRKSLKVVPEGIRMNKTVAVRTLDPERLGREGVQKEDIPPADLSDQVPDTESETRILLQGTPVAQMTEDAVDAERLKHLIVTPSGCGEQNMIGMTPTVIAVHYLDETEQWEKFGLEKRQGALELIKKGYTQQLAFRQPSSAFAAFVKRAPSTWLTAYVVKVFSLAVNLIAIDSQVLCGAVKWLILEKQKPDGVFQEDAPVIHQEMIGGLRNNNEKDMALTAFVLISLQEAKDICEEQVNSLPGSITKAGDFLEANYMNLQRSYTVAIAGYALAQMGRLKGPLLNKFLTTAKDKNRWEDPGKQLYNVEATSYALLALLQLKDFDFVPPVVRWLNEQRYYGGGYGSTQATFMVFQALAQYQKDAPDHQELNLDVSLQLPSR
T1 sequence (P01024 1321-1663 limits assumed, chain 3 of 3): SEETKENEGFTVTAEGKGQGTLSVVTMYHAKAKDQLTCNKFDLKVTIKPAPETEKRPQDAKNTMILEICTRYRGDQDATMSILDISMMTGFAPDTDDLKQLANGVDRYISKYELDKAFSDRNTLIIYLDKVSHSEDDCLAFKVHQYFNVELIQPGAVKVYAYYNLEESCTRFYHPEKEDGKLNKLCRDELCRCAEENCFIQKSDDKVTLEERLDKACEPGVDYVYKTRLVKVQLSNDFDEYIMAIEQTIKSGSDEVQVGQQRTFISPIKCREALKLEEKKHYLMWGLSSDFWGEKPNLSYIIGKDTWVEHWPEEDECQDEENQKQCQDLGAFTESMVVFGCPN
Description: SPR, 0.5 µM FH with anti-FH.07 Fab′ (2 to 1 molar ratio) over immobilised iC3b. Here is the method:
(§1) Binding of FH to C3b, iC3b or C3d in the presence of the anti-FH moAbs was determined by surface plasmon resonance using a Biacore T3000 instrument (GE Healthcare, Little Chalfont, UK). Purified C3b, iC3b or C3d (Complement Technologies) was immobilized onto one of three flow cells of a CM5 Biacore Sensor Chip (GE Healthcare) using standard […] coupling. The remaining flow cell was used as reference surface and prepared by performing a coupling reaction without the addition of any protein. A response of 4400 response units (RUs), 4180 RUs and 1470 RUs was obtained after coupling with C3b, iC3b and C3d, respectively. SPR experiments were performed at 25° C. using a flow rate of 10 μl/min and in 10 mM HEPES-buffered 150 mM saline, pH 7.4, with 0.05% (w/v) Tween-20 (HBS-P). Duplicate injections of 0.5 μM FH with a contact time of 210 seconds were performed to obtain a reference binding signal for FH on each surface. […]
(§2) In addition, SPR experiments were conducted to study the interaction of FH with C3b, iC3b and C3d in the absence and presence of […] Fab′ fragments. Briefly, three flow cells of a CM5 Biacore Sensor chip were coated with either C3b, iC3b or C3d and interactions of FH with these surfaces in the absence or presence of anti-FH moAb was determined on a Biacore T3000 system.

For test [1], the target named is T2, C3b (UniProt P01024 23-667; P01024 749-1663, limits assumed).
T2 construct: domain: C3b; C3b has two disulfide-linked chains (beta and alpha′); also called purified C3b
T2 sequence (P01024 23-667 limits assumed, chain 1 of 2): as the sequence (P01024 23-667 limits assumed, chain 1 of 3) above
T2 sequence (P01024 749-1663 limits assumed, chain 2 of 2): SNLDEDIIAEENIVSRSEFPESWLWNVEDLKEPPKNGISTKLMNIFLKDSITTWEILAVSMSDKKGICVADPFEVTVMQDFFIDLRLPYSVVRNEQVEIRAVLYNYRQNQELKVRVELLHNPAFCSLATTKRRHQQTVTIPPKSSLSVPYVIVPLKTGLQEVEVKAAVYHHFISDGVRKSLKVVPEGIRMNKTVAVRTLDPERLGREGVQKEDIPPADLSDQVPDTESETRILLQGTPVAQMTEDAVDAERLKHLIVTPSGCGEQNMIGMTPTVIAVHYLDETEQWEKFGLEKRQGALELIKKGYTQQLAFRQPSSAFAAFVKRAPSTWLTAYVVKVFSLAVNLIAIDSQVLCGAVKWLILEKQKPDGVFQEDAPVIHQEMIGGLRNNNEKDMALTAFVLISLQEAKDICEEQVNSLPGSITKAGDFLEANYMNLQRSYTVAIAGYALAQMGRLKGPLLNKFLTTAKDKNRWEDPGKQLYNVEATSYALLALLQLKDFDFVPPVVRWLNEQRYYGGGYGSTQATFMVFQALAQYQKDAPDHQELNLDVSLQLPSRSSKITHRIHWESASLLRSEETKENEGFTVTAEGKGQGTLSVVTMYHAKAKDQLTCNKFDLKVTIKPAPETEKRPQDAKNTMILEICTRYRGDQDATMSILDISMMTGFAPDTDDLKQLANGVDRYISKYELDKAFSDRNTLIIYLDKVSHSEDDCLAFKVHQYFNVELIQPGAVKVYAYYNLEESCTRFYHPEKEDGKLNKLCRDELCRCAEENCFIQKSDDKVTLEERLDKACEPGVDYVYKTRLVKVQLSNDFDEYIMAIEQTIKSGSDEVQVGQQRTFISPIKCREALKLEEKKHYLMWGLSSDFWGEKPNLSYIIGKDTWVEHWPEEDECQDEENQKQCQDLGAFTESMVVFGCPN
Kind of test: SPR, 0.5 µM FH with anti-FH.07 Fab′ (2 to 1 molar ratio) over immobilised C3b. Here is the method: as §1, §2
(SPR reads the build-up and loss of mass on a sensor chip optically.)

The target of another test is T3, recombinant FH CCP 15-18 (human, UniProt P08603 868-1104, 125I label).
T3 construct: domain: CCP 15-18; also called recombinant FH CCP domains 15-18
T3 sequence (looked up): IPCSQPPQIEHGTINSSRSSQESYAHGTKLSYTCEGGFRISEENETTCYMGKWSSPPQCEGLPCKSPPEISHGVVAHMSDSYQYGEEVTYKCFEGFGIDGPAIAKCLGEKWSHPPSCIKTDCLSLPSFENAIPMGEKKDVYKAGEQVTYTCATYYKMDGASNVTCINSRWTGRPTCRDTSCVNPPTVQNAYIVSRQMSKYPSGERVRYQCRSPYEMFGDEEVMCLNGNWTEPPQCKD
Kind of test: radioimmunoassay, moAb on RM-19 sepharose, 125I-labelled fragment. Here is the method: (§3) Reactivity of FH specific moAbs was tested with recombinant human FH fragments composed of multiple CCPs. To this end, fifty microliter of 100 μg/ml anti-FH moAbs was mixed with 0.5 ml of 2 mg/ml RM-19 coupled-sepharose (25 μg moAb per 1 mg CnBr-Sepharose). The FH fragments were labelled with ¹²⁵I and 100 μl (20000 c/30 sec) was added to each sample followed by incubation O/N. The assay was performed in PBS with 0.1% (w/v) Tween-20 and 0.1% (w/v) BSA (PTB). Samples were washed 5 times with PBS with 0.1% (w/v) Tween-20 and counted for 30 seconds. Sepharose bound radioactivity was measured and compared to total input (set to 100%).
(§4) In order to map the binding site of anti-FH.07, we tested the reactivity of this moAb towards a panel of radiolabeled recombinant CCP domains or purified human FH. Binding of the moAbs was tested in a radioimmunoassay and was related to the input (100%).

For another test, the target named is T4, recombinant FH CCP 18-20 (human, UniProt P08603 1046-1231, 125I label).
T4 construct: domain: CCP 18-20; also called recombinant FH CCP domains 18-20
T4 sequence (looked up): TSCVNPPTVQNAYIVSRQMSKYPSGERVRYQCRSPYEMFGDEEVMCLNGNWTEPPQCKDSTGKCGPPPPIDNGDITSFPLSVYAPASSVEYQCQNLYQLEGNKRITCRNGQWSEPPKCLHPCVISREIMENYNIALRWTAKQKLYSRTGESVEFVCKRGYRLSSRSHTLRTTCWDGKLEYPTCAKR
The description is as above. Here is the method:
as §3, §4

The next test has as its target T5, recombinant FH CCP 15-19 (human, UniProt P08603 868-1165, 125I label).
T5 construct: domain: CCP 15-19; also called recombinant FH CCP domains 15-19
T5 sequence (looked up): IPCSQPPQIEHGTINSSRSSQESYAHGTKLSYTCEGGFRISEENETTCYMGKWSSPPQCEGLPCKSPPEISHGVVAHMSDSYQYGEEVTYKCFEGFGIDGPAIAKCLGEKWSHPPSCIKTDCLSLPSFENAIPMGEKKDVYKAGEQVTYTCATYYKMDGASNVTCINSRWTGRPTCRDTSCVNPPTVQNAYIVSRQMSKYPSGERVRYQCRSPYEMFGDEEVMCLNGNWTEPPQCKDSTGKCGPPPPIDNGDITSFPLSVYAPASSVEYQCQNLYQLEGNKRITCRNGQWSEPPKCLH
The description is as above. On the procedure: as §3, §4

The test “human factor H” addresses B1. Description: bridging ELISA: FH coat, biotinylated FH for detection. On the procedure: One possible mechanism for the observed increased FH inhibitory function upon incubation with anti-FH.07 is multimerization of FH by crosslinking via the antibody, thereby increasing the avidity of FH for the surface. To test this possibility, we generated monovalent Fab′ fragments of anti-FH.07. If crosslinking of FH is the cause of the observed increased FH function, monovalent Fab′ fragments are expected to show no potentiating effect. With a bridging ELISA we first checked whether the generated Fab′ fragments were indeed completely monovalent and not capable to crosslink FH molecules. To this end an ELISA plate was coated with FH and biotinylated FH was used for detection. […] The anti-FH.07 F(ab′)₂ and Fab′ fragments were then tested in the C3 deposition assays on zymosan and LPS coated plates. To our surprise we observed the same potentiating effect of the Fab′ fragments on FH function. […] Therefore we concluded that the effect of anti-FH.07 was not due to crosslinking of FH molecules by the monoclonal antibody.
(In general: ELISA stands for enzyme-linked immunosorbent assay.)

Test [2] has as its target T2, C3b. Kind of test: SPR, Fab′ injected without FH over immobilised C3b. Here is the method: Binding of FH to C3b, iC3b or C3d in the presence of the anti-FH moAbs was determined by surface plasmon resonance using a Biacore T3000 instrument (GE Healthcare, Little Chalfont, UK). Purified C3b, iC3b or C3d (Complement Technologies) was immobilized onto one of three flow cells of a CM5 Biacore Sensor Chip (GE Healthcare) using standard […] coupling. The remaining flow cell was used as reference surface and prepared by performing a coupling reaction without the addition of any protein. A response of 4400 response units (RUs), 4180 RUs and 1470 RUs was obtained after coupling with C3b, iC3b and C3d, respectively. SPR experiments were performed at 25° C. using a flow rate of 10 μl/min and in 10 mM HEPES-buffered 150 mM saline, pH 7.4, with 0.05% (w/v) Tween-20 (HBS-P). Duplicate injections of 0.5 μM FH with a contact time of 210 seconds were performed to obtain a reference binding signal for FH on each surface. After each sample injection a dissociation time of 240 seconds was allowed, using HBS-P as running buffer, followed by a single 30 seconds injection of 1 M NaCl to regenerate the surface.
To determine the effect of anti-FH.07 without interference of possible cross-linking via the moAb, Fab′ fragments, generated as described above, were used. […]

Some results are limits rather than exact numbers.

B1: the “fold increase of the measured interactions (RU) with anti-FH.07 Fab′ against FH alone” value in the test with iC3b and in the test with C3b [1] was at least 2 fold each time.

B2: monoclonal antibody anti-FH.07 (murine IgG1) (antibody, V domains shown)
VH: QVQLQQSGPGLVQPSQSLSITCTVSDFSLARYGVHWIRQSPGKGLEWLGVIWSGGTADYNAAFISRLNINKDNSKSQVFFKMNSLQANDTAIYYCARNFGNYAVDYWGQGTS
VL: QIVLSQSPTFLSASPGEKVTVTCRASSSVKYMHWYQQKPGASPKPWIFATSNLASGVPARFSGSGSGTSYSLTISRVEAEDAATYYCQQWSIIPPTFGNGTKLELK
notes: Captured with rat anti-mouse kappa RM19; also called intact IgG; intact antibody
Consider B2, for which the binding result in the test with recombinant FH CCP 15-18, with recombinant FH CCP 18-20, with recombinant FH CCP 15-19 and with human factor H was “binds” each time.

B3: F(ab′)2 fragments of anti-FH.07 (other)
VH: QVQLQQSGPGLVQPSQSLSITCTVSDFSLARYGVHWIRQSPGKGLEWLGVIWSGGTADYNAAFISRLNINKDNSKSQVFFKMNSLQANDTAIYYCARNFGNYAVDYWGQGTS
VL: QIVLSQSPTFLSASPGEKVTVTCRASSSVKYMHWYQQKPGASPKPWIFATSNLASGVPARFSGSGSGTSYSLTISRVEAEDAATYYCQQWSIIPPTFGNGTKLELK
notes: also called anti-FH.07 F(ab′)2
In the case of B3, the binding result in the test with human factor H is reported as “binds”.

B4: Fab′ fragments of anti-FH.07 (Fab, V domains shown)
VH: QVQLQQSGPGLVQPSQSLSITCTVSDFSLARYGVHWIRQSPGKGLEWLGVIWSGGTADYNAAFISRLNINKDNSKSQVFFKMNSLQANDTAIYYCARNFGNYAVDYWGQGTS
VL: QIVLSQSPTFLSASPGEKVTVTCRASSSVKYMHWYQQKPGASPKPWIFATSNLASGVPARFSGSGSGTSYSLTISRVEAEDAATYYCQQWSIIPPTFGNGTKLELK
modifications: free thiol groups blocked with iodoacetamide after reduction with dithioerythritol
notes: also called anti-FH.07 Fab′
With B4, the binding result in the test with C3b [2] was “no binding”.
